Results as given in patent publication US20260240831A1, “CANCER STRATIFICATION AND TREATMENT” (Deutsches Krebsforschungszentrum Stiftung des öffentlichen …, priority 2023, published 2026).
Entries after “also recorded” stand apart in the source; their conditions may differ.

B1: NOTUM: Wnt antagonist notum polypeptide (Genbank Acc No. NP_848588.3), overexpressed in PDX GBM cells (protein, UniProt Q6P988 20-496, looked up)
Palmitoleoyl-protein …: SEGRKTWRRRGQQPPPPPRTEAAPAAGQPVESFPLDFTAVEGNMDSFMAQVKSLAQSLYPCSAQQLNEDLRLHLLLNTSVTCNDGSPAGYYLKESRGSRRWLLFLEGGWYCFNRENCDSRYDTMRRLMSSRDWPRTRTGTGILSSQPEENPYWWNANMVFIPYCSSDVWSGASSKSEKNEYAFMGALIIQEVVRELLGRGLSGAKVLLLAGSSAGGTGVLLNVDRVAEQLEKLGYPAIQVRGLADSGWFLDNKQYRHTDCVDTITCAPTEAIRRGIRYWNGVVPERCRRQFQEGEEWNCFFGYKVYPTLRCPVFVVQWLFDEAQLTVDNVHLTGQPVQEGLRLYIQNLGRELRHTLKDVPASFAPACLSHEIIIRSHWTDVQVKGTSLPRALHCWDRSLHDSHKASKTPLKGCPVHLVDSCPWPHCNPSCPTVRDQFTGQEMNVAQFLMHMGFDMQTVAQPQGLEPSELLGMLSNGS
B2: SFRP1: secreted Wnt antagonist; human SFRP1 cloned downstream of the TCF/Lef promoter, lentivirally overexpressed in GBM cells (protein, UniProt Q8N474 32-314, looked up)
Secreted frizzled-related …: SEYDYVSFQSDIGPYQSGRFYTKPPQCVDIPADLRLCHNVGYKKMVLPNLLEHETMAEVKQQASSWVPLLNKNCHAGTQVFLCSLFAPVCLDRPIYPCRWLCEAVRDSCEPVMQFFGFYWPEMLKCDKFPEGDVCIAMTPPNATEASKPQGTTVCPPCDNELKSEAIIEHLCASEFALRMKIKEVKKENGDKKIVPKKKKPLKLGPIKKKDLKKLVLYLKNGADCPCHQLDNLSHHFLIMGRKVKSQYLLTAIHKWDKKNKEFKNFMKKMKNHECPTFQSVFK

Assays:
[1] = test system: GBM cells for SFRP1 overexpression; test: SFRP1 inhibitor treatment of tumour-bearing human brain organoids, KI-67 immunohistochemistry; format: cell-based; conditions: 25 μM, 2 days, vs DMSO control; SFRP1-overexpressing GBM cells in human brain organoids
Protocol: Lentivirally transduced GBM cells for SFRP1 overexpression were injected into day 116-old human brain organoids and cultured in brain Organoid Differentiation Medium with Vitamin A. Injected organoids were maintained for 15 days on an orbital shaker (70 RPM) at 5% CO2 and 37° C. After 15 days, organoids were transferred to culturing medium supplemented with 25 μM of SFRP1 inhibitor WAY-316606 or 25 μM DMSO as a control. Tumour-bearing organoids were maintained for 2 more days and then fixed with 4% formaldehyde for 1 hour at 4° C. on a roller. Fixed organoids were first placed in 10% sucrose in PBS until tissues sank, then transferred to 30% sucrose in PBS. Organoids were then embedded in OCT compound (Tissue-Tek). […]
Confocal images of human brain organoids injected with GBM m-Cherry- and sFRP1-expressing cells that were treated with DMSO or sFRP1 inhibitor. Organoids were stained against Ki67 and mCherry and Ki67+/mCherry+ cells were quantified. […] The tumor origin of segmented cells was determined by assessing background corrected mean fluorescence intensities of the 2D integrated mCherry signal. The count of detected Ki67+/mCherry+ cells was then normalized to the imaged organoid volume yielding a density metric representing cycling tumor cells in both WAY inhibitor treated and DMSO control samples.

PDX GBMs [2] = test: scRNA-seq with ptalign cell states of Wnt-antagonist-overexpressing PDX samples; format: in vivo, mouse; conditions: for Activation state (ptalign cell state) / tumor Differentiation (ptalign aligned pseudotime) / tumor Quiescence (ptalign cell state, incl. astroQ): PDX vs control Wnt-reporter PDX
Protocol: For isolation of the xenografted human GBM cells, tumor bearing mouse brains were dissected and single cell suspension was prepared using Brain Tumor Dissociation Kit (P) and gentleMACS Octo Dissociator with Heaters (Miltenyi) according to manufacturer's instructions. mCherry+ cell population was index sorted into 384 well-plates (Eppendorf Lobind). Microplates containing cell lysates were briefly centrifuged, snap frozen on dry ice and were stored at −80° C. Sytox Blue (Life Technologies, 1:1000) was used in all experiments as a dead cell indicator. Index sorting of single cells as well as sorting of bulk samples was carried out using a 100 micron nozzle at a BD FACSAria II or BD FACSAria Fusion at the Flow Cytometry Core Facility at the DKFZ.
Single cell RNA-sequencing libraries from patient-derived xenografts were prepared using Smart-seq3 platform as previously described (Hagemann-Jensen, Nature Biotechnology, 2020) with minor modifications. The protocol was automated and miniaturized by incorporating liquid handling platforms including Mosquito HV (STPLabtech), Mantix (Formulatrix) and Viaflo 384 (Integra). Briefly, plates were incubated at 72° C. for 10 min to facilitate lysis and denaturation of secondary structures in the RNA. Lysed cells were subjected to reverse transcription in 2 μl using Maxima H-minus reverse transcriptase (Thermo Scientific), an oligo(dT) primer and a template-switching oligonucleotide encompassing an 8-bp unique molecular identifier (IDT). In a randomly selected set of wells, we included ERCC Spike-ins (Ambion) at a 1:2500000 dilution. Full length cDNAs were amplified for 22 cycles of PCR using KAPA HiFi DNA polymerase (KAPA Biosystems). cDNA samples were purified with Ampure XP beads at a 1:0.8 ratio and cDNA quality in randomly selected 10 wells/plate was assessed on a High Sensitivity Bioanalyzer chip (Agilent). cDNA concentrations were quantified using Quant-it PicoGreen dsDNA Assay kit (Thermo Scientific) and Synergy LX multi-mode microplate reader (Biotek). cDNAs were normalized to 250-500 pg μl^−1. 100-200 pg of cDNA per sample was used for tagmentation in 1.2 μl using Illumina XT DNA sample preparation kit. Libraries were finally amplified for 11 cycles of PCR in 4 μl using custom-designed Nextera index primers containing 8-bp index barcode sequences with a minimal Levenshtein distance of 4 as previously published (Buenrostro et al., Nature, 2015). Samples were purified with Ampure XP beads at a 1:0.8 ratio and DNA quality in randomly selected 10 wells/plate was assessed on a High Sensitivity Bioanalyzer chip (Agilent). Libraries were quantified as mentioned above and normalized libraries were equimolarly pooled and purified one last time at a 1:0.8 ratio. Prior to sequencing, final library concentration was determined using Qubit dsDNA High Sensitivity Assay kit (Thermo Scientific) and Qubit fluorometer (Invitrogen) and the average fragment size was calculated on a High Sensitivity Bioanalyzer chip (Agilent). Libraries with 1% spiked-in PhiX control (Illumina) were sequenced at the 75-bp paired end on a high output flow cell using an Illumina NextSeq550 instrument at a sequencing depth of ~1 M reads per cell at the sequencing open lab at the DKFZ.
In sequence alignment, the position of one query sequence in a larger reference sequence is ascertained by scoring local sequence similarity until an optimal match is found. We employ a conceptually similar strategy to infer a given query cell's optimal positioning in the space of a reference pseudotime trajectory in a method we call ptalign. The ptalign program requires four central inputs: a query counts table, a reference counts table, a reference pseudotime mapping, and a set of genes capturing the reference pseudotime trajectory. Query cells are then placed along the reference pseudotime according to the dynamic of the correlation of their gene expression along the trajectory genes. […]

PDX GBMs [3] = test: Survival of mice bearing Wnt-antagonist-overexpressing T6 PDX GBM; format: in vivo, mouse; conditions: for overall survival: overexpression under TCF/Lef promoter in PDX vs Wnt-reporter controls
Excerpt: We identified the secreted Wnt antagonist SFRP1 as being implicated in the Q-A transition in the healthy SVZ. […] Similarly, [22] reports a role of SFRP1 in regulating the activation of human NSCs, and data from our own lab implicates its most-conserved paralog, SFRP5, in the activation of murine NSCs. Following these evidences and in order to target Wnt-active tumor cells, we cloned human SFRP1 downstream of the TCF/Lef promoter and generated T6 PDA and PDX tumors as outlined previously.
To allow sorting of human GBM cells, cells were infected with the 7TGC (Addgene plasmid #24304) lentiviral vector at a multiplicity of infection (MOI) of 5. Expression of the transduction marker (mCherry) was confirmed by FACS analysis. Second-generation, self-inactivating, replication deficient lentiviral particles were produced, purified and titrated as described previously ([32]).
For ortotopic injection of lentivirally transduced primary GBM cells into the mouse brain, 5×10^5 cells were cultured as single cell suspension overnight. Newly formed spheres were resuspended in 2 μl of Matrigel, loaded into a NanoFil syringe and stereotactically injected into the striatum (2.5 mm lateral to the bregma at a depth of 3.0 mm) of 8-10 week-old Fox Chase SCID-Beige mice under anesthesia. Tumor growth was longitudinally monitored by magnetic resonance imaging at the Small Animal Imaging Center at the DKFZ. Upon reaching termination criteria, mice were sacrificed and brains were collected after transcardial perfusion. For perfusion, mice were anesthetized by intraperitoneal injection of 800 μl of perfusion solution. After opening the thoracic cavity exposing heart, transcardial perfusion was carried out with 10 ml of ice cold HBSS.

PDX GBMs [4] = test: Tumor IHC morphology of SFRP1-overexpressing PDX; format: in vivo; conditions: mouse cortex, vs control Wnt-reporter PDX
T6 PDA = test: scRNA-seq with ptalign cell states of SFRP1-overexpressing T6 PDA in human cortical organoids; format: cell-based; conditions: 2-week PDA replicates, compared with PDX (not shown)
Protocol: For injection of lentivirally transduced primary GBM cells into human brain organoids, 3×10^4 cells were cultured as single cell suspension overnight. Newly formed spheres were resuspended in 1 μl of Differentiation Medium with vitamin A, loaded into a NanoFil syringe and injected into the core of 2 month-old organoids under a dissection microscope. Tumor bearing organoids were maintained in Differentiation Medium with vitamin A on an orbital shaker (70 RPM) for 15 days at 5% CO2 and 37° C.
In sequence alignment, the position of one query sequence in a larger reference sequence is ascertained by scoring local sequence similarity until an optimal match is found. We employ a conceptually similar strategy to infer a given query cell's optimal positioning in the space of a reference pseudotime trajectory in a method we call ptalign. The ptalign program requires four central inputs: a query counts table, a reference counts table, a reference pseudotime mapping, and a set of genes capturing the reference pseudotime trajectory. Query cells are then placed along the reference pseudotime according to the dynamic of the correlation of their gene expression along the trajectory genes. […] The quality of an assigned pseudotime is determined via the computation of a dynamic time warping (DTW) matrix over the pseudotime-binned reference and the equally binned query. […]

Molecule | number of proliferating (KI-67+/mCherry+) tumor cells [1] | Activation state (ptalign cell state) (PDX GBMs [2]) | tumor Differentiation (ptalign aligned pseudotime) (PDX GBMs [2]) | tumor Quiescence (ptalign cell state, incl. astroQ) (PDX GBMs [2]) | overall survival (PDX GBMs [3]) | cycling cells (PDX GBMs [2]; PDX vs control) | tumor cell morphology (IHC) (PDX GBMs [4]) | survival longer than control, on average (PDX GBMs [3]; SFRP1 induction in PDX GBMs, before the experiment was terminated) | overall survival (PDX GBMs [3]; listed as sFRP1) | effects on Quiescence, Activation and cycling cells in PDA (T6 PDA)
O=S(=O)(NC1CCNCC1)c1cc(S(=O)(=O)c2ccccc2)ccc1C(F)(F)F [WAY-316606, 5-(phenylsulfonyl)-N-4-piperidinyl-2-(trifluoromethyl)-benzenesulfonamide] | drastically increases the number of proliferating cells | – | – | – | – | – | – | – | – | –
B1 | – | concomitant reduction in activation | without disturbing differentiation | significantly increased quiescence | significantly increased survival | – | – | – | – | –
B2 | – | concomitant reduction in the Activation state | without disturbing differentiation; also recorded: not affected | significantly increased quiescence; also recorded: significant increase in tumor Quiescence | significant increase in overall survival | relative increase in cycling cells | extensive morphological changes; also recorded: dominant astrocyte-like morphology | 1 month | significantly increased survival | consistent yet weaker
